The results in this text go back to the RNAGym collection of RNA variant scans (doi:10.1093/molbev/msab373).

The labels stand for the following.
B1: Azoarcus group I ribozyme (parent)
chain: GUGCCUUGCGCCGGGAAACCACGCAAGGGAUGGUGUCAAAUUCGGCGAAACCUAAGCGCCCGCCCGGGCGUAUGGCAACGCCGAGCCAAGCUUCGGCGCCUGCGCCGAUGAAGGUGUAGAGACUAGACGGCACCCACCUAAGGCAAACGCUAUGGUGAAGGCAUAGUCCAGGGAGUGGCGAAAGUCACACAAACCGG

Variants of B1 are the subject of the data set. The experiment in a line: reverse-splicing fitness (ratio to wild type); higher = more active; in vitro selection; Mg2+ level not given. An outline of the steps: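 An in vitro group I ribozyme library with randomized positions was T7-transcribed and gel-purified. In triplicate, 10 pmol RNA in EPPS pH 7.5 was reacted with 50 pmoles of a 30-nt RNA substrate for 1 h at 37 °C across several added MgCl2 levels (1–48 mM), then stopped with EDTA. Products were reverse transcribed from a substrate-complementary primer, PCR-amplified and sequenced (HiSeq 4000). Fitness is a variant's read proportion after selection over that before, normalised to wild type.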
For the variant C82U A111C A120U A145U C169U, the reverse-splicing fitness was found to be 0.00366.

As for C82A A111G A120U A145U C150G C169A U176C, the reverse-splicing fitness was found to be 0.00338. In the case of C82A A111U A120U A145C C169G U176G, the reverse-splicing fitness was determined as 0.00198.

Turning to C82A A111C A120C A145G C150G C169U U176A, the reverse-splicing fitness was 0.0109. The result for C82U A111U A120U A145C C169A U176G reads 0.00173. For the variant C82U A145U U176C, the reverse-splicing fitness came to 0.477.

For C82G A111C A120U C150U C169U U176C, the reverse-splicing fitness came out at 0.00485. In the case of A145C C150U U176G, the reverse-splicing fitness is 0.308. To C82U A120G U176A belongs 0.0132; to A111G A120G A145C C150U C169A U176A, 0.0171; to C82G A111U A120C A145G C150U U176C, 0.0292. The result for C82G A111C A145G C150G C169U U176G reads 0.00728; that for C82G A111C A145G C150G C169U U176A, 0.0103; that for A111C A120C A145C C150U C169U, 0.048. The result for C82U A111C A120U C150A C169U reads 0.00491. As for A111G A120C C150A C169U U176C, the reverse-splicing fitness is 0.022. The result for C82A A111C A120U A145C C169G reads 0.00295; that for C82A A111G A145G C150U C169G U176G, 0.00644; that for A111G A120C C150A C169G U176G, 0.00513. For the variant A111C A120U A145G C150A C169G U176G, the reverse-splicing fitness turned out to be 0.00255. To C82U A111C A145G C150A U176A belongs 0.0169. To C82G A111G A120C A145C C150U U176G belongs 0.00724; to C82U A120C A145C C150U C169U U176C, 0.0109; to C82A A111U A120G C150G C169A U176G, 0.00672. A111U A120C C150U C169A: the reverse-splicing fitness was 0.0121.

For C82A A111U A120C C150G C169U U176G, the reverse-splicing fitness came out at 0.0062.

Consider A111U C150G C169U U176G, for which the reverse-splicing fitness stood at 0.00634. The result for C82G A111G A120C C150U C169A reads 0.0102; that for A145U C150G C169A U176A, 0.0122. Regarding C82U A120G A145G C150G C169U U176C, the reverse-splicing fitness stood at 0.0118. The result for A111C A120C A145G C150A U176C reads 0.0663; that for C82U A111C A145U C150G C169G U176C, 0.00532; that for A111C A120C A145C U176G, 0.0513.

Turning to A111C A145U C150A C169U U176C, the reverse-splicing fitness was 0.0154.

A111C A145U C150A C169U U176A: the reverse-splicing fitness amounted to 0.0176. C82U A111C C150G C169U U176C: the reverse-splicing fitness is 0.0111. With C82U A111U A120G A145U C150G C169A U176A, the reverse-splicing fitness amounted to 0.00889. For C82U A111U C150A C169G U176C, the reverse-splicing fitness was 0.0217. To A111C A120G A145C C150G belongs 0.0219; to A120C C150A C169U U176A, 0.0533; to A111G A145U U176G, 0.524.

Regarding C82A A111U A120G A145C C150U C169A, the reverse-splicing fitness amounted to 0.00869. With C82A A111U A120G C169U U176A, the reverse-splicing fitness was determined as 0.0201. To C82A A111G A145C C150G C169G U176C belongs 0.00679; to C82G A120C A145U C150G C169U U176A, 0.00813; to C82A A111C A145U C169G U176C, 0.0193. The result for C82U A111U C150U U176G reads 0.0154; that for C82U A111G A120C A145U C150A C169U U176C, 0.0132; that for C82A A120C C169G, 0.00961. In the case of C82A A120G A145G C150A U176G, the reverse-splicing fitness is 0.00779. In the case of C82G A111G A145U C169A U176G, the reverse-splicing fitness came out at 0.0052. Regarding C82A A111U C150G C169U U176C, the reverse-splicing fitness was 0.0139. For C82U A111U A120G A145U C150A C169G, the reverse-splicing fitness was 0.00728. To C82U A111G C150A C169G U176C belongs 0.0199; to C82U A111C A145U C150G, 0.0215. For the variant C82U A111C A145U C150A, the reverse-splicing fitness turned out to be 0.0231. To C82A A111G A120U C150U C169G U176A belongs 0.00869; to C82U A111U A120U A145C C150A, 0.00466. The result for C82A A111G A145C C150G C169U U176A reads 0.00799; that for A111U A120C C150U U176C, 0.204; that for C82G A120C A145C C150U C169U U176G, 0.00439. The result for A120C A145G C150G C169A reads 0.0119; that for A111C C150G C169U U176G, 0.00651.

Turning to C82G A111C A120U C150G C169G U176C, the reverse-splicing fitness was found to be 0.00379. On to C82G A111G A120G A145C C169U, for which the reverse-splicing fitness came out at 0.0132. To C82U A120U A145U C150U U176G belongs 0.00848; to C82A A111U A120C A145U C169U, 0.0129; to C82A A111G A120C A145C C150A C169G U176A, 0.0288. On to A120U A145C C150A C169G, for which the reverse-splicing fitness is 0.0132. As for A145C C169A, the reverse-splicing fitness was determined as 0.167. To C82G A111C A145G C169U U176A belongs 0.0152; to C82G A145C C169U U176C, 0.0115.

With C82U A111C A145U C150A C169U U176C, the reverse-splicing fitness was found to be 0.013. In the case of C82G A111U A120G C150A U176A, the reverse-splicing fitness turned out to be 0.0143. The result for C82U A145G U176A reads 0.353. The result for C82G A111G A120G A145G C169A U176A reads 0.0166. To A111C A145U C150G C169A U176C belongs 0.011; to C82G A111U A120U A145G C150G C169U U176G, 0.00391. With C82A A120U A145U C150A C169G U176G, the reverse-splicing fitness worked out at 0.00136. For C82U A111G A120C A145G C150U U176G, the reverse-splicing fitness worked out at 0.00625. For the variant C82A A111G A120G A145U C150G U176A, the reverse-splicing fitness came to 0.00605.

Take C82A A120G A145C C169U U176A: the reverse-splicing fitness is 0.0217. The result for C82G A111U A120G A145C C150G C169A U176A reads 0.00745.
